Measured values reported in US7387779B2, “Anti-angiogenic proteins and fragments and methods of use thereof” (Beth Israel Deaconess Medical Center, priority 1998, dated 2008).

Tested on: new blood vessels in Matrigel plugs
Test: In vivo Matrigel plug assay
Set-up: species or system C57/BL6 mice
Settings: for inhibition of neovascularization / average number of vessels per high power field: Tumstatin-N53 5 μg/ml, T1 and T3 peptide 10 μg/ml; for average number of vessels per high power field: control 8.81±0.35; for number of blood vessels per plug: 2 or 20 μg/ml insoluble protein, 50 ng/ml VEGF, vs PBS; for number of blood vessels per plug / reduction in the number of blood vessels: 14 days; for reduction of new blood vessels: 6 days, 5 μg/ml, relative to PBS control
Protocol: The matrigel assay was also conducted in vivo in C57/BL6 mice. Matrigel was thawed overnight at 4° C. It was then mixed with 20 U/ml of heparin (Pierce Chemical Co., Rockford, Ill., USA), 150 ng/ml of bFGF (R&D Systems, Minneapolis, Minn., USA), and either 1 μg/ml of Arresten or 10 μg/ml of endostatin. The matrigel mixture was injected subcutaneously using a 21 g needle. Control groups received the same mixture, but with no angiogenic inhibitor. After 14 days, mice were sacrificed and the matrigel plugs removed. The matrigel plugs were fixed in 4% paraformaldehyde in PBS for 4 hours at room temperature, then switched to PBS for 24 hours. The plugs were embedded in paraffin, sectioned, and H&E stained. Sections were examined by light microscopy and the number of blood vessels from 10 high-power fields were counted and averaged.
To evaluate the in vivo effect of Tumstatin on the formation of new capillaries, a Matrigel plug assay was performed (Passaniti, A. et al., 1992, Lab. Invest. 67:519-29). Five- to six-week-old male C57/BL6 mice (Jackson Laboratories, Bar Harbor, Me., USA) were obtained. Matrigel (Collaborative Biomedical Prods.) was thawed overnight at 4° C. Before injection into C57/BL6 mice, it was mixed with 20 U/ml of heparin (Pierce Chemical Co., Rockford, Ill., USA), 150 ng/ml of bFGF (R&D Sys., Minneapolis, Minn., USA), and […] of Tumstatin. Control groups received no angiogenic inhibitor. The Matrigel mixture was injected sub-cutaneously using a 21 gauge needle. After 14 days, mice were sacrificed and the Matrigel plugs were removed. Matrigel plugs were fixed in 4% para-formaldehyde (in PBS) for 4 hours at room temperature, then switched to PBS for 24 hours. The plugs were embedded in paraffin, sectioned, and H & E stained. Sections were examined by light microscopy and the number of blood vessels from 10 high power fields were counted and averaged. All sections were coded and observed by a pathologist who was unaware of the study protocols.
Anti-angiogenic activity was measured by the in vivo Matrigel plug assay, in which 0.5 ml of Matrigel containing either 2 μg/ml or 20 μg/ml insoluble protein, 50 ng/ml VEGF, and 20 U/ml heparin was injected simultaneously into both flanks of C57/1BL6 mice. The plugs remained in the mice for 14 days, when the mice were sacrificed and the plugs resected and fixed. The plugs were embedded, sectioned and H&E stained. Samples were blinded and the blood vessels quantitated. No difference in the number of blood vessels was found between the two concentrations of protein, so all six counts were averaged and plotted.
To evaluate the in vivo effect of Tumstatin-44-131 of the formation of new capillaries, a Matrigel plug assay was performed. After 6 days of treatment, the number of new blood formed was reduced 91% upon treatment with 5 μg/ml E. Coli-expressed Tumstatin-44-131, relative to the PBS-treated control. Tum-1, which lacks the N-terminal 53 amino acids of full-length Tumstatin, was also tested, and reduced neovascularization by 95%. The average (over 3-4 Matrigel plugs) number of vessels was 0.47.+−.0.16 for Tum-1-treated plugs, 0.80.+−.0.16 for Tumstatin-44-131-treated plugs, and 8.81.+−.0.35 for PBS-treated controls.
To evaluate the in vivo effect of T3 on the formation of new capillaries, a matrigel plug assay was performed with Tumstatin-N53 (5 μg/ml), T1 and T3 peptide (10 μg/ml). The number of blood vessels from 4-7 high power fields were counted and averaged. The average number of vessels per high power field after treatment with Tumstatin-N53 was 0.47±0.16, 7.41±0.54 for T1 peptide, and 0.33±0.16 for T3 peptide. Control treatment produced 8.81±0.35 vessels per field, on average.

In the case of GLKGKRGDSGSPATWTTRGF [T1], the inhibition of neovascularization is reported as “no significant reduction” and the “average number of vessels per high power field” value is reported as 7.41±0.54.

For LQRFTTMPFLFCNVNDVCNF [T3], the inhibition of neovascularization was 96% and the “average number of vessels per high power field” value was 0.33±0.16.

B1: Can-1: N-terminal 114 amino acids of full-length Canstatin (protein, listed as Homo sapiens)
chain: VSIGYLLVKHSQTDQEPMCPVGMNKLWSGYSLLYFEGQEKAHNQDLGLAGSCLARFSTMPFLYCNPGDVCYYASRNDKSYWLSTTAPLPMMPVAEDEIKPYISRCSVCEAPAIA
B1 was tested, and the “number of blood vessels per plug” value was “significantly fewer blood vessels”.

B2: Canstatin: NC1 domain of the α2 chain of Type IV collagen (SEQ ID NO:6) (protein, listed as Homo sapiens)
chain: VSIGYLLVKHSQTDQEPMCPVGMNKLWSGYSLLYFEGQEKAHNQDLGLAGSCLARFSTMPFLYCNPGDVCYYASRNDKSYWLSTTAPLPMMPVAEDEIKPYISRCSVCEAPAIAIAVHSQDVSIPHCPAGWRSLWIGYSFLMHTAAGDEGGGQSLVSPGSCLEDFRATPFIECNGGRGTCHYYANKYSFWLTTIPEQSFQGSPSADTLKAGLIRTHISRCQVCMKNL
For B2, the “number of blood vessels per plug” value was “significantly fewer blood vessels”.

B3: Tum-1: residues 54 to 244 of Tumstatin, lacking the N-terminal 53 amino acids (SEQ ID NO:22) (protein)
chain: QRAHGQDLGTLGSCLQRFTTMPFLFCNVNDVCNFASRNDYSYWLSTPALMPMNMAPITGRALEPYISRCTVCEGPAIAIAVHSQTTDIPPCPHGWISLWKGFSFIMFTSAGSEGTGQALASPGSCLEEFRASPFLECHGRGTCNYYSNSYSFWLASLNPERMFRKPIPSTVKAGELEKIISRCQVCMKKRH
modifications: Tum-1 (Tumstatin N-53) (amino acids 54-244 of SEQ ID NO10)
For B3, the “reduction of new blood vessels” value was 95%, the inhibition of neovascularization was 95% and the “average number of vessels per high power field” value was 0.47±0.16.

B4: endostatin: tumor associated angiogenesis inhibitor used as comparator (protein, UniProt P39060 1572-1754, looked up)
Endostatin: HSHRDFQPVLHLVALNSPLSGGMRGIRGADFQCFQQARAVGLAGTFRAFLSSRLQDLYSIVRRADRAAVPIVNLKDELLFPSWEALFSGSEGPLKPGARIFSFDGKDVLRHPTWPQKSVWHGSDPNGRRLTESYCETWRTEAPSATGQASSLLGGRLLGQSAASCHHAYIVLCIENSFMTASK
modifications: Endostatin
B4 was tested, and the “reduction in the number of blood vessels” value (bFGF, 1 μg/ml Arresten, 10 μg/ml endostatin) was 50%.

B5: Tumstatin: NC1 domain of the α3 chain of type IV collagen, residues 1-244 (SEQ ID NO:10) (protein, listed as Homo sapiens)
chain: GLKGKRGDSGSPATWTTRGFVFTRHSQTTAIPSCPEGTVPLYSGFSFLFVQGNQRAHGQDLGTLGSCLQRFTTMPFLFCNVNDVCNFASRNDYSYWLSTPALMPMNMAPITGRALEPYISRCTVCEGPAIAIAVHSQTTDIPPCPHGWISLWKGFSFIMFTSAGSEGTGQALASPGSCLEEFRASPFLECHGRGTCNYYSNSYSFWLASLNPERMFRKPIPSTVKAGELEKIISRCQVCMKKRH
With B5 the “number of vessels per high power field” value (1 mg/ml Tumstatin, control 7.50±2.17) was 2.25±1.32 and the “reduction in the number of blood vessels” value (bFGF and heparin, 1 mg/ml E. Coli-produced Tumstatin) was 67%.

B6: Tumstatin-44-131: residues 44 to 131 of full-length Tumstatin (SEQ ID NO:33) (protein)
chain: FSFLFVQGNQRAHGQDLGTLGSCLQRFTTMPFLFCNVNDVCNFASRNDYSYWLSTPALMPMNMAPITGRALEPYISRCTVCEGPAIAI
modifications: Tumstatin-45-132 (amino acids 45-132 of SEQ ID NO10)
In the case of B6, the “reduction of new blood vessels” value is reported as 91%.
